# What was measured:
# Test in all cases: micro-array, phage-presented peptide on printed CK
# [1] = target: T1, Mig (CXCL9) (UniProt Q07325 23-125)
# T1 construct: Bought chemokine
# T1 sequence (looked up): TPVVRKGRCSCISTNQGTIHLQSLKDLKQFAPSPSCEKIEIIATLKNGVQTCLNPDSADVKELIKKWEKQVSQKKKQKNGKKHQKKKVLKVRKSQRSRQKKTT
# Method: (§1) (1) Printing: Chemokine (CK) solution (in water) was serially diluted with Print Reagent (GenTel BioSurfaces USA) to final concentrations of 50 μg and 25 μg/ml. BSA/BSA-Biotin control solutions (in water) were diluted with Print Reagent to 100 μg/ml. Amplified stock of M13 phage control (M13KEgIII Cloning Vector, New England Biolabs, Cat.No.E8101S) was stored in Tris Buffered Saline (TBS; pH7.5, 4° C.) and diluted with Print Reagent to the working titre (10^8 pfu/μl). An automated spotting robot (16 pin print tool, 0.4mm head; BioRobotics, UK) was used to print the CK/BSA control/M13 control, 5 repeats per sample (CK 25 μg/ml and 50 μg/ml; BSA 100 μg/ml; M13 20 μl), on PATH Protein Microarray Slides (GenTel, Prod.No.2-1005/-1025) at […], and 50-70% relative humidity. Printed micro-array slides were stored at Room Temperature (RT) or 4° C. for at least 24 h before use.
# (§2) (2) Blocking: Block Buffer (500 μl/partition; PATHblock, GenTel, Prod.No.2-1014) was applied to the slide for 1 hour at room temp (RT). After removal of Block Buffer, the slide was air dried for 25 minutes;
# (§3) (11) Analysis: Quantitative analysis of micro-array was performed by the SpotReader program of Niles Scientific (USA) and presented as Relative Fluorescence (RF) as a function of CK concentration. Micro-array readout (Cy3 fluorescence) was quantified to determine the relative binding affinities of a CBP for the CKs and by inference, the specificity of the CBP for binding to a CK.
# [2] = target: T2, IP-10 (CXCL10) (UniProt P02778 22-98)
# T2 construct: Bought chemokine
# T2 sequence (looked up): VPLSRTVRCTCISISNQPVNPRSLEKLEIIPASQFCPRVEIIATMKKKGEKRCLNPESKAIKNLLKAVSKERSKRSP
# Method: as §1, §2, §3
# [3] = target: T3, I-TAC (CXCL11) (UniProt O14625 22-94)
# T3 construct: Bought chemokine; also called I-TACK
# T3 sequence (looked up): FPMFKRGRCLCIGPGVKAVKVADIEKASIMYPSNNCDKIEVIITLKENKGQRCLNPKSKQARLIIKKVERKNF
# Method: as §1, §2, §3
# [4] = target: T4, I-309 (CCL1) (UniProt P22362 23-96, limits assumed)
# T4 construct: Bought chemokine
# T4 sequence (looked up): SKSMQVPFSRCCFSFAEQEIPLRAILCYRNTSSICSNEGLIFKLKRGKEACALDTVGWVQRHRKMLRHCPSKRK
# Method: as §1, §2, §3
# [5] = target: T5, MCP-1 (CCL2) (UniProt P13500 24-99)
# T5 construct: Bought chemokine
# T5 sequence (P13500 24-99 limits assumed): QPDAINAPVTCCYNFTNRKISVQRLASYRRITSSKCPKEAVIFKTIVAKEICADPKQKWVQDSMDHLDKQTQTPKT
# Method: as §1, §2, §3
# [6] = target: T6, MCP-2 (CCL8) (UniProt P80075 24-99)
# T6 construct: Bought chemokine
# T6 sequence (looked up): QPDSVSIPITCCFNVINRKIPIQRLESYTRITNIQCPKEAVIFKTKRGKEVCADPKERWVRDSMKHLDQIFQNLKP
# Method: as §1, §2, §3
# [7] = target: T7, MCP-4 (CCL13) (UniProt Q99616 24-98)
# T7 construct: Bought chemokine
# T7 sequence (Q99616 24-98 limits assumed): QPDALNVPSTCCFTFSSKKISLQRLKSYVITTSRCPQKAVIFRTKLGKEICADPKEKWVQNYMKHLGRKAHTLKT
# Method: as §1, §2, §3
# [8] = target: T8, Eotaxin (CCL11) (UniProt P51671 24-97)
# T8 construct: Bought chemokine
# T8 sequence (P51671 24-97 limits assumed): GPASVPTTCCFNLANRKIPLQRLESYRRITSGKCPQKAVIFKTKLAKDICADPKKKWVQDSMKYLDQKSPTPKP
# Method: as §1, §2, §3
# [9] = target: T9, Eotaxin 2 (CCL24) (UniProt O00175 27-104, limits assumed)
# T9 construct: Bought chemokine
# T9 sequence (looked up): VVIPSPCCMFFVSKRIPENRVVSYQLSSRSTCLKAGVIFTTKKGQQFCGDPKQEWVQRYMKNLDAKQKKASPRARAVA
# Method: as §1, §2, §3
# [10] = target: T10, Eotaxin 3 (CCL26) (UniProt Q9Y258 24-94)
# T10 construct: Bought chemokine
# T10 sequence (looked up): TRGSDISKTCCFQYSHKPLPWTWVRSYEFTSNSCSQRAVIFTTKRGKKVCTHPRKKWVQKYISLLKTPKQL
# Method: as §1, §2, §3
# [11] = target: T11, MDC(69aa) (CCL22) (UniProt O00626 25-93)
# T11 construct: Bought chemokine
# T11 sequence (looked up): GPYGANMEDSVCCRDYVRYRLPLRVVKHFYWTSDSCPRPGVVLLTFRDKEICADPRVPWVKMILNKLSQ
# Method: as §1, §2, §3
# [12] = target: T12, SDF-1α (CXCL12) (UniProt P48061-2 22-89)
# T12 construct: Alpha isoform of CXCL12; also called SDFα
# T12 sequence (P48061 22-89 limits assumed): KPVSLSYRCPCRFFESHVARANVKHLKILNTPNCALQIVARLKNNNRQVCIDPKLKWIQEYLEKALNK
# Method: as §1, §2, §3
# [13] = target: T13, SDF-1β (CXCL12) (UniProt P48061 22-93)
# T13 construct: Beta isoform of CXCL12; also called SDFβ
# T13 sequence (P48061 22-93 limits assumed): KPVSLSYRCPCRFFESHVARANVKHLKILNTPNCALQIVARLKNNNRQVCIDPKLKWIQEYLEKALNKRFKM
# Method: as §1, §2, §3
# [14] = target: T14, BCA-1 (CXCL13) (UniProt O43927 23-109)
# T14 construct: Bought chemokine
# T14 sequence (looked up): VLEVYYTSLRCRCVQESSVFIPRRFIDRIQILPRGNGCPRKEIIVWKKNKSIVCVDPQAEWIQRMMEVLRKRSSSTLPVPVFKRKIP
# Method: as §1, §2, §3
# [15] = target: T15, MIP-3α (CCL20) (UniProt P78556 27-96)
# T15 construct: Bought chemokine
# T15 sequence (P78556 27-96 limits assumed): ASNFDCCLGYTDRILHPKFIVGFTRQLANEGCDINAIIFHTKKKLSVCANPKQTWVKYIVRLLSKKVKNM
# Method: as §1, §2, §3
# [16] = target: T16, Exodus-2 (CCL21) (UniProt O00585 24-134)
# T16 construct: Bought chemokine
# T16 sequence (looked up): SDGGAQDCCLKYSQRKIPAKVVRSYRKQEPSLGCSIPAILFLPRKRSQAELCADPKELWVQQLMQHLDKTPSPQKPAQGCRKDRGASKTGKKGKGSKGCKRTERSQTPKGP
# Method: as §1, §2, §3
# [17] = target: T17, TECK (CCL25) (UniProt O15444 24-150)
# T17 construct: Bought chemokine
# T17 sequence (looked up): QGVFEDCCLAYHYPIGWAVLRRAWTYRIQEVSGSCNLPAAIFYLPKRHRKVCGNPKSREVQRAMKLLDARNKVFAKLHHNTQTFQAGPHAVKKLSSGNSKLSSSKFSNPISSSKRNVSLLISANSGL
# Method: as §1, §2, §3
# [18] = target: T18, CTAC (CCL27) (UniProt Q9Y4X3 25-112)
# T18 construct: Bought chemokine
# T18 sequence (looked up): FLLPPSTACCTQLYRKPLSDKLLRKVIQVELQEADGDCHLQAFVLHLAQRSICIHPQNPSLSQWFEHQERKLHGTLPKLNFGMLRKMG
# Method: as §1, §2, §3
# [19] = target: T19, Lymphotactin (XCL-1) (UniProt P47992 23-114, limits assumed)
# T19 construct: Bought chemokine
# T19 sequence (looked up): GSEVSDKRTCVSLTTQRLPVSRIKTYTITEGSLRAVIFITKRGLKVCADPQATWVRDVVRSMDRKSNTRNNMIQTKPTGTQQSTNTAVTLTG
# Method: as §1, §2, §3
binder,measurement,setting,value
WVFGAAMCK [Phage-Presented Peptide 8.8 (Ph-p8.8)],binding result,[1],binds
same,binding result,[2],binds
same,binding result,[3],binds
same,binding result,[4],binds
same,Relative Fluorescence Units (RFU),[5],> 15000 RFU
same,Relative Fluorescence Units (RFU),[6],> 15000 RFU
same,Relative Fluorescence Units (RFU),[7],> 15000 RFU
same,binding result,[8],binds
same,binding result,[9],binds
same,binding result,[10],binds
same,binding result,[11],binds
same,binding result,[12],binds
same,binding result,[13],binds
same,binding result,[14],binds
same,binding result,[15],binds
same,binding result,[16],binds
same,binding result,[17],binds
same,binding result,[18],binds
same,binding result,[19],binds

# Source: patent US20100227824A1 (SYMTHERA CANADA, published 2010)
